In this assay the target is endogenous SHP-1 (UniProt P29351). In words: GST pull-down of endogenous macrophage SHP-1. The following applies: reference: wild type.

On to “EHEC (EDL933) Tir (from UniProt Q7DB77) Y490F”, for which the “binding against the reference” value (sites Y490) is given as “weaker”.

With “EHEC (EDL933) Tir (from UniProt Q7DB77) Y519F”, the “binding against the reference” value (sites Y519) was “weaker”.

For the origin of these results see paper PMC6542180.
